Experimental data from patent US20200155714A1, “DUAL-TARGET IMAGING MOLECULAR PROBE, PREPARATION METHOD THEREFOR, AND APPLICATIONS THEREOF” (PEKING UNION MEDICAL COLLEGE HOSPITAL, CHINESE ACADEMY OF …, priority 2017, published 2020).

Design: species or system mice
Details: mouse, in vivo
Excerpt: {circumflex over (4)} Biodistribution of ^68Ga-NOTA-3PEG4-TATE-RGD in Healthy Mice
There was small amount of uptake in the heart, liver and lungs, which decreased quickly over time.

With `CC(O)[C@@H]1NC(=O)[C@H](CCCCN)NC(=O)[C@@H](Cc2c[nH]c3ccccc23)NC(=O)[C@H](Cc2ccc(O)cc2)NC(=O)[C@@H](NC(=O)[C@@H](Cc2ccccc2)NC(=O)COCCOCCOCCOCCNC(=O)C(CCC(=O)NCCOCCOCCOCCOCC(=O)NCCCC[C@@H]2NC(=O)[C@@H](Cc3ccc(O)cc3)NC(=O)[C@H](CC(=O)O)NC(=O)CNC(=O)[C@H](CCCNC(=N)N)NC2=O)NC(=O)COCCOCCOCCOCCNC(=S)Nc2ccc(CC3CN(CC(=O)O)CCN(CC(=O)O)CCN3CC(=O)O)cc2)CSSC[C@@H](C(=O)N[C@H](C(=O)O)[C@@H](C)O)NC1=O` (stereo partly drawn) [^68Ga-NOTA-3PEG4-TATE-RGD, metal not drawn] the “clearance from blood, heart and liver” value was “cleared from the blood, heart and liver faster”, the “distribution in brain tissues / blood-brain barrier passage” value was “could not pass through the blood-brain barrier” and the route of excretion was “mainly excreted through the kidneys”.
